Substitutions are numbered along the chain they refer to. Values belong to the binder of their own block, whether it stands above or below them.
Tests used:
[1] = biological target: Matrix-associated proTGFβ1 (hLTBP1-proTGFβ1 and hLTBP3-proTGFβ1 complexes); test: MSD-SET; cell average KD over ECM average KD
[2] = biological target: Matrix-associated proTGFβ1 (hLTBP1-proTGFβ1 and hLTBP3-proTGFβ1 complexes); test: Octet (BLI); cell average KD over ECM average KD
[3] = biological target: Cell-associated proTGFβ1 (hGARP-proTGFβ1 and hLRRC33-proTGFβ1 complexes); test: Octet (BLI); IgG1 from yeast; mean of hGARP and hLRRC33
[4] = biological target: Matrix-associated proTGFβ1 (hLTBP1-proTGFβ1 and hLTBP3-proTGFβ1 complexes); test: Octet (BLI); IgG1 from yeast; mean of hLTBP1 and hLTBP3
[5] = biological target: Cell-associated proTGFβ1 (hGARP-proTGFβ1 and hLRRC33-proTGFβ1 complexes); test: MSD-SET; IgG4 from mammalian cells; mean of hGARP and hLRRC33
[6] = biological target: Matrix-associated proTGFβ1 (hLTBP1-proTGFβ1 and hLTBP3-proTGFβ1 complexes); test: MSD-SET; IgG4 from mammalian cells; mean of hLTBP1 and hLTBP3

B3: Ab2 (antibody, V domains shown)
VH: EVQLLESGGGLVQPGGSLRLSCAASGFTFADYAMTWVRQAPGKGLEWVSAISGSGAATYFADSVKGRFTISRDNSKNTLYLQMNSLRAEDTAVYYCARVSSGHWDFDYWGQGTLVTVSS
VL: DIQLTQSPSSLSASVGDRVTITCRASQSISSYLNWYQQKPGKAPKLLIYAASNLQSGVPSRFSGSGSGTDFTLTISSLQPEDFATYYCQQTYTVPLTFGGGTKVEIK
Cell AVRG (average KD) [3]: 0.643 nM
ECM AVRG (average KD) [4]: 0.157 nM
Cell AVRG (average KD) [5]: 2.3 nM
ECM AVRG (average KD) [6]: 0.266 nM

B4: Ab13 (antibody, IgG1, V domains shown)
VH: B3 VH with G53S, S54F, G55A, A56S, T58I, F60Y
VL: B3 VL with L4M, N53S, T91V, T93D, V94P
G/D (fold bias) [2]: 21.7 fold
Cell AVRG (average KD) [3]: 5.7 nM
ECM AVRG (average KD) [4]: 0.263 nM

B8: Ab11 (antibody, V domains shown)
VH: B3 VH with A30R, D31N, T35S, A50S, A56G, F60Y
VL: B3 VL
G/D (fold bias) [1]: 3.87 fold
G/D (fold bias) [2]: 4.35 fold
Cell AVRG (average KD) [3]: 0.699 nM
ECM AVRG (average KD) [4]: 0.161 nM
Cell AVRG (average KD) [5]: 4.65 nM
ECM AVRG (average KD) [6]: 1.2 nM

B9: Ab14 (antibody, IgG1, V domains shown)
VH: B3 VH with A30S, D31A, S54T, A56G, A57S, F60Y
VL: B3 VL with L4M, N53S, T91V, T93D, V94P
G/D (fold bias) [2]: 17.4 fold
Cell AVRG (average KD) [3]: 5.92 nM
ECM AVRG (average KD) [4]: 0.341 nM

B10: Ab12 (antibody, V domains shown)
VH: B3 VH with E1Q, L5V, L11V, G16R, A30S, T35V, A56F, A57T, F60Y
VL: B3 VL
G/D (fold bias) [1]: 3.4 fold
G/D (fold bias) [2]: 22.9 fold
Cell AVRG (average KD) [3]: 3.89 nM
ECM AVRG (average KD) [4]: 0.17 nM
Cell AVRG (average KD) [5]: 2.45 nM
ECM AVRG (average KD) [6]: 0.72 nM

More lines, now with the values ahead:

G/D (fold bias) [1]: 1.68 fold
G/D (fold bias) [2]: 34.5 fold
Cell AVRG (average KD) [3]: 5.95 nM
ECM AVRG (average KD) [4]: 0.172 nM
Cell AVRG (average KD) [5]: 4.75 nM
ECM AVRG (average KD) [6]: 2.83 nM
B1: Ab19 (antibody, V domains shown)
VH: B3 VH with E1Q, L5V, L11V, G16R, A30S, D31S, Y32F, Y108E
VL: B3 VL

G/D (fold bias) [2]: 24.3 fold
Cell AVRG (average KD) [3]: 4.64 nM
ECM AVRG (average KD) [4]: 0.191 nM
B2: Ab17 (antibody, IgG1, V domains shown)
VH: B3 VH with L11V, A30S, D31S, Y32F
VL: B3 VL

G/D (fold bias) [2]: 22 fold
Cell AVRG (average KD) [3]: 6.26 nM
ECM AVRG (average KD) [4]: 0.284 nM
B5: Ab18 (antibody, IgG1, V domains shown)
VH: B3 VH with E1Q, L5V, L11V, G16R, A30S, T35V, R98T
VL: B3 VL

G/D (fold bias) [2]: 15.3 fold
Cell AVRG (average KD) [3]: 2.4 nM
ECM AVRG (average KD) [4]: 0.157 nM
B6: Ab16 (antibody, IgG1, V domains shown)
VH: B3 VH with A30S, D31N, T35S, A56F, A57T, F60Y
VL: B3 VL

G/D (fold bias) [1]: 6.75 fold
G/D (fold bias) [2]: 4.42 fold
Cell AVRG (average KD) [3]: 0.715 nM
ECM AVRG (average KD) [4]: 0.162 nM
Cell AVRG (average KD) [5]: 1.35 nM
ECM AVRG (average KD) [6]: 0.2 nM
B7: Ab20 (antibody, V domains shown)
VH: B3 VH with A30S, D31A, A56G, A57V, F60Y, F106Y
VL: B3 VL

G/D (fold bias) [2]: 24.2 fold
Cell AVRG (average KD) [3]: 3.86 nM
ECM AVRG (average KD) [4]: 0.159 nM
B11: Ab15 (antibody, IgG1, V domains shown)
VH: B3 VH with L5V, L11V, G16R, A30S, T35V, A56F, A57T, F60Y
VL: B3 VL

Reference: US20210340238A1, “TGFß1 INHIBITORS AND USE THEREOF” (Scholar Rock, Inc., priority 2018, published 2021)
